Data as given in US20070292907A1, “Compositions and method for regulating ubiquitin-specific processing proteases” (priority 2005, published 2007).

Key:
Experiment in all cases: covalent modification by UbVS (immunoblot of UbVS adducts)
[1] = target: T1, USP14-ΔUBL (91-494) (Homo sapiens, UniProt P54578); format: biochemical; conditions: both in the absence and presence of the 19S regulatory particle; FIG. 5C lanes 1 and 2
T1 construct: 3.5 μM full-length USP14 or USP14-AUBL (91-494) was incubated with or without 157 nM bovine 19S complex (PA700); GST (N); made in house
Description: (§1) Ubiquitin vinylsulfone (UbVS) is a specific covalent inhibitor of a large subset of deubiquitinating enzymes, and thus can be used as an active site-directed probe for the detection of DUB activity (Borodovsky et al. (2001) supra). In order to examine the effect of proteasome association on the activity of USP14, the purified recombinant USP14 proteins were pre-incubated with or without the 19S RP and then assayed for covalent modification by UbVS.
(§2) UbVS was prepared as previously described (Borodovsky et al. (2001) supra). […] UbVS was then added to the sample to give approximately 1:1 stoichiometry with the 19S complex. Incubation was continued for another hour and then stopped by the addition of 2×SDS sample buffer. The reaction mixtures were resolved by 14% SDS-PAGE, transferred to nitrocellulose membrane, and the UbVS adducts were detected with mouse monoclonal anti-ubiquitin antibody (P4D1) (Santa Cruz).

[2] = target: T2, full-length USP14 (Homo sapiens, UniProt P54578); format: biochemical
T2 construct: 3.5 μM full-length USP14 or USP14-AUBL (91-494) was incubated with or without 157 nM bovine 19S complex (PA700); GST (N); made in house
Description: as §1, §2

[3] = target: T3, UCH37 (Bos taurus, UniProt Q9XSJ0); format: biochemical, bovine; conditions: reactions in the presence of 19S RP, relative to the USP14 adduct; FIG. 5C lanes 2 and 4
T3 construct: UCH37 was present in the reactions as a stoichiometric component of the 19S RP complex; from tissue; host or cells: bovine 19S complex (PA700), gift
T3 sequence (Q9XSJ0 1-328): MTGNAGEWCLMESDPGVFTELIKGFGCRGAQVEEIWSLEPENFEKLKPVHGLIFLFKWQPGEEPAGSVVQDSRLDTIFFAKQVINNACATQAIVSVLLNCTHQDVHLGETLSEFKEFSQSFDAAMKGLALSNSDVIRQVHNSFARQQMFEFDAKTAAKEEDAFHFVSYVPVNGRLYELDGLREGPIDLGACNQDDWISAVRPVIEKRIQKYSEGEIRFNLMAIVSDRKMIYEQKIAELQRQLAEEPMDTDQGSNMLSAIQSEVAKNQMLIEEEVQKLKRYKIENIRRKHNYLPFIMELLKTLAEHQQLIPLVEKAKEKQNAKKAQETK
T3 sequence (A1L5A6 1-407 partner): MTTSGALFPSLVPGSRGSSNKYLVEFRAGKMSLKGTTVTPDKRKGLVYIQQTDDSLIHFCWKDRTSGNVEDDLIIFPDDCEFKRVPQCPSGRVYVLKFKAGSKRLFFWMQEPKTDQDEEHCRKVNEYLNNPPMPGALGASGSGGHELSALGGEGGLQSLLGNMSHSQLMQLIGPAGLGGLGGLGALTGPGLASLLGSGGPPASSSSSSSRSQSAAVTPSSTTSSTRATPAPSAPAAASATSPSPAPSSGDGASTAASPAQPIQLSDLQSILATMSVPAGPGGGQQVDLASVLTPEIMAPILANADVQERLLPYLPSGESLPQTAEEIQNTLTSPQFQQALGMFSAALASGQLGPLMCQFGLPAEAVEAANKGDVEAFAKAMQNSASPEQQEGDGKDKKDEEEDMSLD
Description: Two factors contribute to this observation.
as §2

T2 sequence (P54578 whole entry): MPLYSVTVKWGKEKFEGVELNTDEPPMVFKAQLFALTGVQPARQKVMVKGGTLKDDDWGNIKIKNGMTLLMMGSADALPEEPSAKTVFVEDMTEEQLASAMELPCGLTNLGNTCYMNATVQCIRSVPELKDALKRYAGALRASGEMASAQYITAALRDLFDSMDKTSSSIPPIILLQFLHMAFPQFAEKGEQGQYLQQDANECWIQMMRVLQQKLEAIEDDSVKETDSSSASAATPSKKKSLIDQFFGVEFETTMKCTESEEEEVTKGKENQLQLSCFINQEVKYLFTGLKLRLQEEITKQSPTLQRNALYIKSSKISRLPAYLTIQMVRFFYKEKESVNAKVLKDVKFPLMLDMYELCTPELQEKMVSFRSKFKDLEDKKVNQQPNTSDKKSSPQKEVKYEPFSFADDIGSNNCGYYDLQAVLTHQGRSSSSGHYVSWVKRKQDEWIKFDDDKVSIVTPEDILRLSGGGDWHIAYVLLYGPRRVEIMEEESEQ
T1 sequence (P54578 91-494, stated change not applied): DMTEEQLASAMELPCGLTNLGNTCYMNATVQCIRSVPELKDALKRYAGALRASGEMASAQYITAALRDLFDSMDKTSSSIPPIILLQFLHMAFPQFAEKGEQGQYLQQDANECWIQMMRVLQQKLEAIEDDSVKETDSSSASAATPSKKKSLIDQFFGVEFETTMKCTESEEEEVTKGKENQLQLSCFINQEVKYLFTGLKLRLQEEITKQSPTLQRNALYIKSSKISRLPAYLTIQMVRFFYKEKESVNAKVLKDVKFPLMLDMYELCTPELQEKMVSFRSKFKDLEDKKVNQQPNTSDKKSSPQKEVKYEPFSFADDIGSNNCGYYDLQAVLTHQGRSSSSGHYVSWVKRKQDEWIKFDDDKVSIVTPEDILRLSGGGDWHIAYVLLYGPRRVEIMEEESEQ

Ubiquitin vinylsulfone [UbVS]
activity toward UbVS [1]: extremely low activity
USP14-UbVS complex formation ([2]; full-length USP14 by itself, without 19S RP, FIG. 5C lane 3): no detectable USP14-UbVS complex formation
USP14-UbVS complex formation ([2]; full-length USP14 with 19S regulatory particle added, FIG. 5C lane 4): strong USP14-UbVS band
UCH37-UbVS adduct detected [3]: only a trace amount
